In patent publication US20160083701A1 (UNITED STATES OF AMERICA AS REPRESENTED BY THE DEPARTMENT …, published 2016):

What was measured:
[1] = target: His-tagged recombinant rat AKAP18δ (rAKAP18δ) (rat) (UniProt Q6JP77); experiment: co-IP with anti-his beads, anti-Flag immunoblot, band ratios; reference is the same reaction without rPKAc
[2] = target: T1, Purified recombinant SERCA2 (rSERCA2, Abnova) (UniProt P16615 1-1042, limits assumed); experiment: co-IP of the Flag-tagged construct with purified rSERCA2 (150 ng), anti-Flag IP, anti-SERCA2 immunoblot
T1 construct: Bought protein; The legend gives 1042 amino acids, while the discussion calls it SERCA2a
T1 sequence (P16615 whole entry): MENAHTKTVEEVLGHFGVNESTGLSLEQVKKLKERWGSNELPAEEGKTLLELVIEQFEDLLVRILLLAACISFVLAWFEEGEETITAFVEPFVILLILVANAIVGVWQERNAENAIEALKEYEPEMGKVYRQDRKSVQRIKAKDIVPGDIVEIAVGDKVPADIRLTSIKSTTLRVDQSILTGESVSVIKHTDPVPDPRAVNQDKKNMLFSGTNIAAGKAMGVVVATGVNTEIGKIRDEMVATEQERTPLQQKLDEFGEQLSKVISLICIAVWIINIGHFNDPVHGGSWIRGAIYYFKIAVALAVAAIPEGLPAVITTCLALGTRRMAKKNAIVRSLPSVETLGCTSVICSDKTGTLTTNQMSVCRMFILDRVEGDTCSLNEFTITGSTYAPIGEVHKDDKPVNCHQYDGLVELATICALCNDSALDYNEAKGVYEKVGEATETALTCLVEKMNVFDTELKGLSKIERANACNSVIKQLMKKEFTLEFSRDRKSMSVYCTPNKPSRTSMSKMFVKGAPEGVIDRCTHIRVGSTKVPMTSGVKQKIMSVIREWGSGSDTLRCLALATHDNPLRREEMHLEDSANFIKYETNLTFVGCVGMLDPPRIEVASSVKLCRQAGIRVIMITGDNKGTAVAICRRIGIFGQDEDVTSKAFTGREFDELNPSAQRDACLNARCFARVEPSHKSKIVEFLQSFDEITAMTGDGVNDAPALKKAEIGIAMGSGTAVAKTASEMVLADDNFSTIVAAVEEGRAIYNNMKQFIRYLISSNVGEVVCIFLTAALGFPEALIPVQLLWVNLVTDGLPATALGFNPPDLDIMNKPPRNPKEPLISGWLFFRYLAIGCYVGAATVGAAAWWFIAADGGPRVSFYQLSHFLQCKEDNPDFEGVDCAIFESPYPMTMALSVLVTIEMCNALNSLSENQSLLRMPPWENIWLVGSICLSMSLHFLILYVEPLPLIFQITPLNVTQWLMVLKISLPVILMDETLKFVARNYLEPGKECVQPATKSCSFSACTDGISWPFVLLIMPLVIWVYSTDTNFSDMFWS
Source text: FIG. 11 a-d. rPKAc phosphorylates rhPDE3A and increases its interactions rSERCA2. A. Schemes representing PDE3A1 [NHR1: trans-membrane domain (obligatory membrane insertion domain); NHR2: membrane association domain; CCR: conserved C-terminal catalytic region; P1-4: predicted PKA phosphorylation sites; rhPDE3A and truncated mutants (PDE3A2, PDE3A-A510, PDE3A-RD), and rSERCA2 (1042 amino acids, 3-77 cation transporter N-terminal; 93-341, E1-E2 ATPase; 345-724, haloacid dehydrogenase like hydrolase; 819-991, cation transporter ATPase C-terminus). B. Putative PKA phosphorylation sites of PDE3A designated with asterisks. […] Proteins were immunoprecipitated with anti-Flag antibodies and immunoblotted with anti-SERCA2 (upper panel), or anti-Flag (middle panel). Lower panel: input control (SERCA2). Shown are representative blots from three independent experiments. (RD: regulatory domain; AA: amino acid).

Chain of His-tagged recombinant rat AKAP18δ (rAKAP18δ) (rat) (Q6JP77 whole entry, stated change not applied): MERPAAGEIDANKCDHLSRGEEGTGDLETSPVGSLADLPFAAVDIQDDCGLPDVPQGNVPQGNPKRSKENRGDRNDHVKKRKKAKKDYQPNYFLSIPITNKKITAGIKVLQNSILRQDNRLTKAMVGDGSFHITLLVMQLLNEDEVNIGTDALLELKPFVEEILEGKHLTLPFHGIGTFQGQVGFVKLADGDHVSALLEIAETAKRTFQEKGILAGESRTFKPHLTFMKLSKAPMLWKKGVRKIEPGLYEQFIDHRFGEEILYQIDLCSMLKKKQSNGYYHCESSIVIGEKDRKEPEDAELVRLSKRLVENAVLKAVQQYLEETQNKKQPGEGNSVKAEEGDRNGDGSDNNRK

| fold increase in binding (with rPKAc against control without rPKAc) [1] [fold] | binding result [2] | Molecule |
| --- | --- | --- |
| 9 | – | Flag-tagged recombinant human PDE3A1 (rhPDE3A1), phosphorylated in vitro by rPKAc (from UniProt Q14432 146-1141) (enzyme) |
| – | no binding | rhPDE3A-A510 (recombinant form lacking the first 510 aa of the PDE3A open reading frame) (enzyme, The range 511-1141 follows from the statement that the first 510 aa of the open reading frame were deleted; Incubated with or without rPKAc) SRPGALAKISPLSSPCSSPLQGTPASSLVSKISAVQFPESADTTAKQSLGSHRALTYTQSAPDLSPQILTPPVICSSCGRPYSQGNPADEPLERSGVATRTPSRTDDTAQVTSDYETNNNSDSSDIVQNEDETECLREPLRKASACSTYAPETMMFLDKPILAPEPLVMDNLDSIMEQLNTWNFPIFDLVENIGRKCGRILSQVSYRLFEDMGLFEAFKIPIREFMNYFHALEIGYRDIPYHNRIHATDVLHAVWYLTTQPIPGLSTVINDHGSTSDSDSDSGFTHGHMGYVFSKTYNVTDDKYGCLSGNIPALELMALYVAAAMHDYDHPGRTNAFLVATSAPQAVLYNDRSVLENHHAAAAWNLFMSRPEYNFLINLDHVEFKHFRFLVIEAILATDLKKHFDFVAKFNGKVNDDVGIDWTNENDRLLVCQMCIKLADINGPAKCKELHLQWTDGIVNEFYEQGDEEASLGLPISPFMDRSAPQLANLQESFISHIVGPLCNSYDSAGLMPGKWVEDSDESGDTDDPEEEEEEAPAPNEEETCENNESPKKKTFKRRKIYCQITQHLLQNHKMWKKVIEEEQRLAGIENQSLDQTPQSHSSEQIQAIKEEEEEKGKPRGEEIPTQKPDQ |
